2 molecules from paper PMC10564760, “A human monoclonal antibody binds within the poliovirus receptor-binding site to neutralize all three serotypes” (Nature Communications, 2023) can be followed below.

Holding throughout (settings): both partners purified
The target of assay [1] is T1, Sabin inactivated poliovirus type 2 capsid (Poliovirus type 2, Sabin strain …, strain).
T1 construct: also called SIPV2; ISPV2; copies: + + +
The experiment in a line: BLI.

In assay [2] the target is T2, Sabin poliovirus type 1 capsid (live) (Poliovirus type 1, Sabin (live), UniProt P03301, strain, biotin (EZ-Link Micro Sulfo-NHS-Biotinylation Kit) | biotin (EZ-Link Micro Sulfo-NHS-Biotinylation Kit) | biotin (EZ-Link Micro Sulfo-NHS-Biotinylation Kit)).
T2 construct: also called SPV1; Sabin serotype 1; copies: + + +
Nature of the assay: BLI. Background: In BLI a coated tip is dipped into the sample, and binding shifts an interference pattern.

Assay [3] concerns the target T3, wild-type poliovirus type 2 capsid (Poliovirus type 2, wild type; strain …, strain).
T3 construct: also called WTPV2; wild-type PV2; copies: + + +
T3 chain 1: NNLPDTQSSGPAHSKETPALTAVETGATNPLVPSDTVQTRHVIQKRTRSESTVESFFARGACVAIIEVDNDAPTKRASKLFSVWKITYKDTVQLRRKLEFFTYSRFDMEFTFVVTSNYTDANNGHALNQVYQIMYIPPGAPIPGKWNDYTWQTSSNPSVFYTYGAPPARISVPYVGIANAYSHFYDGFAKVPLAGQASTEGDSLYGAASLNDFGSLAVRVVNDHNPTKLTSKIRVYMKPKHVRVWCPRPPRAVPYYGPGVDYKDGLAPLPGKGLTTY
T3 chain 2: not shown
T3 chain 3: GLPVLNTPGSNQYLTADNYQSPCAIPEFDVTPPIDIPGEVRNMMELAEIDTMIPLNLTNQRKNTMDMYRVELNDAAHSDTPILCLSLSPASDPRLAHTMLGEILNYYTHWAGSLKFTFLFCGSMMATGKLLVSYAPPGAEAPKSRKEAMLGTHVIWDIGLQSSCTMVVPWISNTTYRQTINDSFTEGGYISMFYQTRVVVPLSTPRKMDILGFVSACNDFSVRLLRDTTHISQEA
The experiment in a line: cryo-EM structure.

In assay [4] the target is T4, wild-type poliovirus serotype 2 capsid (Poliovirus type 2, wild type; strain …, strain).
T4 construct: also called WTPV2; wild-type PV2; copies: + + +
T4 chain 1: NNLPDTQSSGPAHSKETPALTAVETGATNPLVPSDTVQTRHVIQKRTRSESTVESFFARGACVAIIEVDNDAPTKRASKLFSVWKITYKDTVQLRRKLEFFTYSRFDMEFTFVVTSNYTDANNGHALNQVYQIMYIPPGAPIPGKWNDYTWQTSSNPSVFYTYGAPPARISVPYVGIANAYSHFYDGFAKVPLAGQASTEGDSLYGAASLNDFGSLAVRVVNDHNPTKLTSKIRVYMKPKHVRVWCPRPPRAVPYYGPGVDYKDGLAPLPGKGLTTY
T4 chain 2: not shown
T4 chain 3: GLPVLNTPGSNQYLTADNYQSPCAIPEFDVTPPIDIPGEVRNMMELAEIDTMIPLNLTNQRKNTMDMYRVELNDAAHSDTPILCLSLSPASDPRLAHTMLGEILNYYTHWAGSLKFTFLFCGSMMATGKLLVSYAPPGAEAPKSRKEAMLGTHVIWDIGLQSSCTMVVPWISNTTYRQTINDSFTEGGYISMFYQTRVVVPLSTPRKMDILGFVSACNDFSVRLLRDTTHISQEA
Nature of the assay: cryo-EM structure.

In general, Kd refers to the concentration at which binding is half-saturated. A lower Kd goes with higher affinity. By koff is commonly meant a measure of how fast the partners let go of each other. A higher koff goes with fast dissociation. Broadly, the kon is a measure of how fast the partners come together. High values mean faster complex formation, low ones slower complex formation.

B1: 9H2 fragment antigen-binding (Fab) (Fab, V domains shown)
VH: LVQSGAELKKPGASVKFSCQASGFTFTTYDIHWVRQAPGQGLEWMGMISPSRDSTIYAQKFQGRVTMTSDTSTSTVYMELTSLRSEDTALYYCATASRPSAWVFRSLYTYYYMDVWGTGTTVTVSS
VL: QSALTQPASVSGSPGQSITISCTGTITDIGYYNYVSWYQQHPGKAPKLIIFDVTNRPSGVSDRFSGSKSGNTASLTISGLQAEDEGDYYCFSHRSNNIRVFGGGTKLTVL
notes: also called 9H2 Fab; Fab 9H2
In assay [1], B1 returned a Kd of 2.1 µM, a koff of 0.483 s⁻¹ and a kon of 230000 M⁻¹ s⁻¹. In assay [2], this molecule registered a Kd of 936 µM, a koff of 1.05 s⁻¹ and a kon of 1120 M⁻¹ s⁻¹. The binding result in assay [3] is reported as “binds”.

B2: 9H2 fragment antigen-binding (Fab) (Fab, V domains shown)
VH: LVQSGAELKKPGASVKFSCQASGFTFTTYDIHWVRQAPGQGLEWMGMISPSRDSTIYAQKFQGRVTMTSDTSTSTVYMELTSLRSEDTALYYCATASRPSAWVFRSLYTYYYMDVWGTGTTVTVSS
VL: QSALTQPASVSGSPGQSITISCTGTITDIGYYNYVSWYQQHPGKAPKLIIFDVTNRPSGVSDRFSGSKSGNTASLTISGLQAEDEGDYYCFSHRSNNIRVFGGGTKLTVL
notes: also called 9H2 Fab; Fab 9H2
For the molecule B2, the binding result in assay [4] is recorded as “binds”.
